Molecular target: His-tagged MUC1 cytoplasmic domain (His-MUC1-CD) (human)
Assay: SPR (BIAcore), His-MUC1-CD immobilized on the sensor chip, peptide injected at 10 µM, 1:1 binding model

Q: For MUC1/CQC peptide, which Kd is on record?
A: 30 nM

— patent US20110251246A1
